Data on seven molecules can be found in paper PMC11167000, “Molecular mechanism of BMP signal control by Twisted gastrulation” (Nature Communications, 2024).

A word on the Kd: it is a measure of binding affinity in units of concentration. Broadly, the stoichiometry N is a count of units in the complex or per binding partner.

B1: human BMP2 (ligand, UniProt P12643 283-396, looked up)
chain: QAKHKQRKRLKSSCKRHPLYVDFSDVGWNDWIVAPPGYHAFYCHGECPFPLADHLNSTNHAIVQTLVNSVNSKIPKACCVPTELSAISMLYLDENEKVVLKNYQDMVVEGCGCR
notes: Bone morphogenetic protein 2 (BMP2), human; it speaks of BMP ligands in general as dimeric
B2: human Growth Differentiation Factor 5 (GDF5, A382–R501) (ligand)
chain: MAPLATRQGKRPSKNLKARCSRKALHVNFKDMGWDDWIIAPLEYEAFHCEGLCEFPLRSHLEPTNHAVIQTLMNSMDPESTPPTCCVPTRLSPISILFIDSANNVVYKQYEDMVVESCGCR
notes: N-terminal methionine of the expression construct; Growth differentiation factor 5 (GDF5), human, UniProt P43026, residues A382–R501, no tags; Disulfide-linked dimer
B3: human TWSG1 C-terminal domain (TWSG1 CTD, T85–F223) (domain or fragment)
chain: ETGTPPTSKSTVEELHEPIPSLFRALTEGDTQLNWNIVSFPVAEELSHHENLVSFLETVNQPHHQNVSVPSNNVHAPYSSDKEHMCTVVYFDDCMSIHQCKISCESMGASKYRWFHNACCECIGPECIDYGSKTVKCMNCMF
notes: residues of the vector between the secretion signal and the TWSG1 domain; Twisted gastrulation (TWSG1), human, C-terminal domain, residues T85–F223; The methods sentence on this construct says 'followed by ETG, TWSG1 NTD' where CTD must be meant; The structural description gives the CTD as Pro87–Phe223; source: expressed and purified from dialyzed media using IMAC followed by SEC as the …
B4: human TWSG1 N-terminal domain (TWSG1 NTD, C26–S83) (domain or fragment)
chain: ETGCNKALCASDVSKCLIQELCQCRPGEGNCSCCKECMLCLGALWDECCDCVGMCNPRNYS
notes: residues of the vector between the secretion signal and TWSG1 NTD; Twisted gastrulation (TWSG1), human, N-terminal domain, residues C26–S83; Treated with endoglycosidase F1 in the purification described; The structural description gives the NTD as Cys26–Arg80; source: expressed and purified from dialyzed media similar to full-length TWSG1 (IMAC, HRV 3C cleavage, IMAC, SEC); not shown: mono Venus …
B5: human CHRDL2 (A25–T429) (natural protein)
chain: ETGARARPDMFCLFHGKRYSPGESWHPYLEPQGLMYCLRCTCSEGAHVSCYRLHCPPVHCPQPVTEPQQCCPKCVEPHTPSGLRAPPKSCQHNGTMYQHGEIFSAHELFPSRLPNQCVLCSCTEGQIYCGLTTCPEPGCPAPLPLPDSCCQACKDEASEQSDEEDSVQSLHGVRHPQDPCSSDAGRKRGPGTPAPTGLSAPLSFIPRHFRPKGAGSTTVKIVLKEKHKKACVHGGKTYSHGEVWHPAFRAFGPLPCILCTCEDGRQDCQRVTCPTEYPCRHPEKVAGKCCKICPEDKADPGHSEISSTRCPKAPGRVLVHTSVSPSPDNLRRFALEHEASDLVEIYLWKLVKGIFHLTQIKKVRKQDFQKEAQHFRLLAGPHEGHWNVFLAQTLELKVTASPDKVTKT
modifications: Asn-linked glycan (predicted at Asn 114)
notes: residues of the vector between the secretion signal and CHRDL2; Chordin-like protein 2 (CHRDL2), human, UniProt Q6WN34, residues A25–T429; also called Chordin superfamily member CHRDL2; source: expressed and purified from dialyzed media using IMAC followed by SEC as the full-length TWSG1
B6: human BMP7 (ligand, UniProt P18075 293-431, looked up)
chain: STGSKQRSQNRSKTPKNQEALRMANVAENSSSDQRQACKKHELYVSFRDLGWQDWIIAPEGYAAYYCEGECAFPLNSYMNATNHAIVQTLVHFINPETVPKPCCAPTQLNAISVLYFDDSSNVILKKYRNMVVRACGCH
notes: Bone morphogenetic protein 7 (BMP7), human; source: bought: Miltenyi Biotec
B7: human Twisted gastrulation (TWSG1), full-length glycosylated TWSG1 (Cys26–Phe223) (natural protein)
chain: ETGCNKALCASDVSKCLIQELCQCRPGEGNCSCCKECMLCLGALWDECCDCVGMCNPRNYSDTPPTSKSTVEELHEPIPSLFRALTEGDTQLNWNIVSFPVAEELSHHENLVSFLETVNQPHHQNVSVPSNNVHAPYSSDKEHMCTVVYFDDCMSIHQCKISCESMGASKYRWFHNACCECIGPECIDYGSKTVKCMNCMF
modifications: Asn-linked glycans (predicted at Asn 52, 81 and 147); fully glycosylated for binding, cellular and SEC-MALS assays; cut down to one N-acetylglucosamine with endoglycosidase F1 for crystallization
notes: residues of the vector between the secretion signal and TWSG1; Twisted gastrulation (TWSG1), human, UniProt Q9GZX9, residues C26–F223; Monomer-dimer equilibrium in solution; also called full-length TWSG1; wild-type TWSG1; source: HEK-293T, transient transfection, secreted, purified (IMAC, SEC)

For series [1], the target named is B7. The series is described as follows: SPR; equilibrium binding, Biacore T200, 25 °C; BMP2, BMP7, GDF5 or CHRDL2 amine-coupled to a CM5 chip, TWSG1 proteins as analytes; 0.15 M NaCl, 20 mM HEPES pH 7.5, 2 mM CaCl2, 0.005% Tween 20; 1:1 binding isotherm. The following applies: both partners purified. Background: In SPR one partner is held on a chip, and binding of the other changes the refractive index at the surface.

Series [2] concerns the molecule itself. The series is described as follows: crystal structure; TWSG1 NTD and GDF5 mixed 1:1 mol:mol, crystallized with CaCl2; 1.96 Å.
Series [3] deals with B6. The series is described as follows: SPR; equilibrium binding, Biacore T200, 25 °C; BMP2, BMP7, GDF5 or CHRDL2 amine-coupled to a CM5 chip, TWSG1 proteins as analytes; 0.15 M NaCl, 20 mM HEPES pH 7.5, 2 mM CaCl2, 0.005% Tween 20; 1:1 binding isotherm. The following applies: both partners purified.
Series [4] has as its target B2. The series is described as above. The following applies: both partners purified.
The target of series [5] is B1. Described as above. The following applies: both partners purified.
In series [6] the target is B5. The description is as above. The following applies: both partners purified.
Series [7] deals with the molecule itself. The series is described as follows: SEC-MALS; Superdex 200 HR 10/30, 150 mM NaCl, 10 mM HEPES pH 7.5, 2 mM CaCl2, 21 °C; proteins at 2 mg/ml, 0.1 ml per injection. On the technique in general: In gel filtration, larger molecules generally elute earlier.
For series [8], the target named is TWSG1 Ile40Ala (human, UniProt Q9GZX9 26-223, Ile40Ala, Asn-linked glycans (predicted Asn52, Asn81, Asn147; fully glycosylated, HEK-type expression without kifunensine); disulfide-rich. Parent construct inferred: the methods state that the C26-F223 constru). The series is described as follows: SPR; as a1, BMP7 immobilized at higher level (7372 RU). The following applies: both partners purified.

Series [9] deals with B5. The series is described as follows: SEC-MALS; Superdex 200 HR 10/30, 150 mM NaCl, 10 mM HEPES pH 7.5, 2 mM CaCl2, 21 °C; proteins at 2 mg/ml, 0.1 ml per injection. The following applies: both partners purified.

Take B1: the binding result in [1] was “binds”.

Turning to B2, the binding result in series [2] and in [1] was “binds” throughout.

As for B3, the “fold weaker than the TWSG1 NTD” value in series [3], in series [4] and in [5] was roughly 100 fold throughout. Further, the Kd in series [6] was 460 nM.

In the case of B4, the figures for the Kd in series [3], in series [4] and in [5] were 94 nM, 380 nM and 1010 nM, respectively.

With B5, the binding result in series [7] was “binds”.

On to B6, for which the Kd in [8] was 454000 nM. Moreover, in series [1], the binding result is given as “binds”.

In the case of B7, the binding result in series [9] is reported as “binds”. Besides, the “stoichiometry N” value in [7] stood at 2.
